From publication PMC3855604
Read-outs that look alike come from different tables or passages of the source.

Columns and labels:
[1] = tested on: M447C (NBD P1′) PAI-1; experiment: stopped-flow fluorimetry; conditions: other: stopped-flow fluorimetry
[2] = target: wild type glycosylated PAI-1 (human) (UniProt P05121)
[3] = target: non-glycosylated Q123K PAI-1 (human) (UniProt P05121)
[4] = target: complex of wt rPAI-1 with Vn (UniProt P05121)
[5] = target: M447C (NBD P1′) PAI-1 (human); experiment: stopped-flow fluorimetry
[6] = target: non-glycosylated Q123K PAI-1 (human) (UniProt P05121); experiment: competition read by tPA amidolytic activity
[7] = target: wild type glycosylated PAI-1 (human) (UniProt P05121); experiment: competition read by tPA amidolytic activity
[8] = target: non-glycosylated Q123K PAI-1 (human) (UniProt P05121); experiment: competition read by tPA amidolytic activity; remark: listed apart in the source
[9] = target: wild type recombinant non-glycosylated PAI-1 (human) (UniProt P05121)
[10] = target: complex of NBD S119C PAI-1 with S195A tcuPA (UniProt P05121); experiment: stopped-flow fluorimetry
[11] = target: S119C (NBD S119C) PAI-1 (human) (UniProt P05121); experiment: stopped-flow fluorimetry
[12] = target: S119C (NBD S119C) PAI-1 (human) (UniProt P05121); experiment: stopped-flow fluorimetry; remark: listed apart in the source

## recombinant two chain urokinase
[1]
  KM: 10.2 ± 2.2 µM

## S195A two chain urokinase (S356A; S195A in chymotrypsin numbering) (enzyme)
[2]
  kL3 (spontaneous inactivation of PAI-1 with S195A tcuPA), 50°C: 0.00024 s⁻¹
  kL3 (spontaneous inactivation of PAI-1 with S195A tcuPA), 60°C: 0.0025 s⁻¹
[3]
  kL3 (spontaneous inactivation of Q123K PAI-1 with S195A tcuPA), 37°C: 5e-05 s⁻¹
  kL3 (spontaneous inactivation of Q123K PAI-1 with S195A tcuPA), 50°C: 0.00066 s⁻¹
  kL3 (spontaneous inactivation of Q123K PAI-1 with S195A tcuPA), 60°C: 0.00122 s⁻¹
[4]
  kL4 (spontaneous inactivation of PAI-1 with Vn and S195A tcuPA), 37°C: 3.4e-06 s⁻¹
  kL4 (spontaneous inactivation of PAI-1 with Vn and S195A tcuPA), 50°C: 0.00011 s⁻¹
  kL4 (spontaneous inactivation of PAI-1 with Vn and S195A tcuPA), 55°C: 0.00012 s⁻¹
  kL4 (spontaneous inactivation of PAI-1 with Vn and S195A tcuPA), 60°C: 0.00042 s⁻¹
[5]
  Kd: 24.6 nM
  koff: 0.15 s⁻¹
  kon: 6.1e+06 M⁻¹ s⁻¹
[6]
  Kd: 1.3 nM
[7]
  Kd: 1.2 nM
[8]
  Kd: 1.3 nM

## recombinant two chain urokinase (enzyme)
[5]
  kon: 2.68e+07 M⁻¹ s⁻¹

## Monomeric vitronectin (natural protein)
[9]
  kL2 (spontaneous inactivation of PAI-1 with Vn), 60°C: 0.011 s⁻¹
[2]
  kL2 (spontaneous inactivation of PAI-1 with Vn), 37°C: 3.6e-05 s⁻¹
  kL2 (spontaneous inactivation of PAI-1 with Vn), 50°C: 0.00043 s⁻¹
  kL2 (spontaneous inactivation of PAI-1 with Vn), 55°C: 0.001 s⁻¹
  kL2 (spontaneous inactivation of PAI-1 with Vn), 60°C: 0.0049 s⁻¹
[3]
  kL2 (spontaneous inactivation of Q123K PAI-1 with Vn), 37°C: 0.00018 s⁻¹
  kL2 (spontaneous inactivation of Q123K PAI-1 with Vn), 50°C: 0.0081 s⁻¹
  kL2 (spontaneous inactivation of Q123K PAI-1 with Vn), 55°C: 0.0109 s⁻¹
  kL2 (spontaneous inactivation of Q123K PAI-1 with Vn), 60°C: 0.0222 s⁻¹
[10]
  kon: 1.33e+07 M⁻¹ s⁻¹
[11]
  koff: 0.0022 to 0.0072 s⁻¹
  kon: 7.2e+06 M⁻¹ s⁻¹
[12]
  kon: 7.5e+06 M⁻¹ s⁻¹
